In this assay the target is Recombinant Cx43CT (carboxyl terminal domain of rat connexin43, residues 255-382, preceded by GPLG) (rat) (UniProt P08050). The assay can be described thus: SPR, peptide 1.0 mM.
Chain of Recombinant Cx43CT (carboxyl terminal domain of rat connexin43, residues 255-382, preceded by GPLG) (rat) (P08050 other isoform, or with tags, fused parts or gaps limits assumed): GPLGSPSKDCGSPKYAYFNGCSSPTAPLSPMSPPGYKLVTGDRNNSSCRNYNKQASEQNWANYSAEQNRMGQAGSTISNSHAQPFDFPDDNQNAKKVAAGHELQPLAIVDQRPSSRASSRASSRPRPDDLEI

On to Peptide 2502, AcRNP-NH2, for which the Response Dose (arbitrary units) was 4.6.
